Laboratory results reported in patent US20160145657A1, “Methods and Materials for Producing 7-Carbon Chemicals via a C9 Route” (INVISTA North America S.á.r.l., priority 2014, published 2016).

Legend:
Type in all cases: biochemical
[1] = ω-transaminase activity, reverse direction (7-aminoheptanoate to pimelate semialdehyde), L-alanine formation by RP-HPLC; settings: cell free extract, 10 mM 7-aminoheptanoate, 10 mM pyruvate, pH 7.5, 25° C., 4 h; FIG. 13
Protocol: (§1) A nucleotide sequence encoding an N-terminal His-tag was added to the nucleic acid sequences from Chromobacterium violaceum, Pseudomonas syringae, Rhodobacter sphaeroides, and Vibrio fluvialis encoding the ω-transaminases of SEQ ID NOs: 7, 9, 10 and 12, respectively (see FIG. 6) such that N-terminal HIS tagged ω-transaminases could be produced. Each of the resulting modified genes was cloned into a pET21a expression vector under control of the T7 promoter and each expression vector was transformed into a BL21[DE3] E. coli host. The resulting recombinant E. coli strains were cultivated at 37° C. in a 250 mL shake flask culture containing 50 mL LB media and antibiotic selection pressure, with shaking at 230 rpm. Each culture was induced overnight at 16° C. using 1 mM IPTG.
(§2) The pellet from each induced shake flask culture was harvested via centrifugation. Each pellet was resuspended and lysed via sonication. The cell debris was separated from the supernatant via centrifugation and the cell free extract was used immediately in enzyme activity assays.
Enzyme activity assays in the reverse direction (i.e., 7-aminoheptanoate to pimelate semialdehyde) were performed in a buffer composed of a final concentration of 50 mM HEPES buffer (pH=7.5), 10 mM 7-aminoheptanoate, 10 mM pyruvate and 100 μM pyridoxyl 5′ phosphate. Each enzyme activity assay reaction was initiated by adding cell free extract of the ω-transaminase gene product or the empty vector control to the assay buffer containing the 7-aminoheptanoate and incubated at 25° C. for 4 h, with shaking at 250 rpm. The formation of L-alanine from pyruvate was quantified via RP-HPLC.

[2] = ω-transaminase activity, forward direction (pimelate semialdehyde to 7-aminoheptanoate), pyruvate formation by RP-HPLC; settings: for acceptance of pimelate semialdehyde as substrate (conversion of L-alanine to pyruvate) against the empty vector control: cell free extract, 10 mM pimelate semialdehyde, 10 mM L-alanine, pH 7.5, 25° C., 4 h, FIG. 14; for reversibility of ω-transaminase activity: pimelate semialdehyde accepted, 7-aminoheptanoate synthesized: conclusion from reverse and forward assays of Example 1
Protocol: as §1, §2
Enzyme activity in the forward direction (i.e., pimelate semialdehyde to 7-aminoheptanoate) was confirmed for the transaminases of SEQ ID NO 9, SEQ ID NO 10 and SEQ ID NO 12. Enzyme activity assays were performed in a buffer composed of a final concentration of 50 mM HEPES buffer (pH=7.5), 10 mM pimelate semialdehyde, 10 mM L-alanine and 100 μM pyridoxyl 5′ phosphate. Each enzyme activity assay reaction was initiated by adding a cell free extract of the ω-transaminase gene product or the empty vector control to the assay buffer containing the pimelate semialdehyde and incubated at 25° C. for 4 h, with shaking at 250 rpm. The formation of pyruvate was quantified via RP-HPLC.

[3] = ω-transaminase activity, 7-aminoheptanol to 7-oxoheptanol, L-alanine formation by RP-HPLC; settings: for acceptance of 7-aminoheptanol as substrate (conversion of pyruvate to L-alanine) against the empty vector control: cell free extract, 10 mM 7-aminoheptanol, 10 mM pyruvate, pH 7.5, 25° C., 4 h, FIG. 17; for acceptance of 7-oxoheptanol as substrate forming 7-aminoheptanol, concluded from reversibility: inferred from reverse direction assay and Example 1
Protocol: A nucleotide sequence encoding an N-terminal His-tag was added to the Chromobacterium violaceum, Pseudomonas syringae and Rhodobacter sphaeroides nucleic acids encoding the ω-transaminases of SEQ ID NOs: 7, 9 and 10, respectively (see FIG. 6) such that N-terminal HIS tagged ω-transaminases could be produced. The modified genes were cloned into a pET21a expression vector under the T7 promoter. Each expression vector was transformed into a BL21[DE3] E. coli host. Each resulting recombinant E. coli strain were cultivated at 37° C. in a 250 mL shake flask culture containing 50 mL LB media and antibiotic selection pressure, with shaking at 230 rpm. Each culture was induced overnight at 16° C. using 1 mM IPTG.
as §2
Enzyme activity assays in the reverse direction (i.e., 7-aminoheptanol to 7-oxoheptanol) were performed in a buffer composed of a final concentration of 50 mM HEPES buffer (pH=7.5), 10 mM 7-aminoheptanol, 10 mM pyruvate, and 100 μM pyridoxyl 5′ phosphate. Each enzyme activity assay reaction was initiated by adding cell free extract of the ω-transaminase gene product or the empty vector control to the assay buffer containing the 7-aminoheptanol and then incubated at 25° C. for 4 h, with shaking at 250 rpm. The formation of L-alanine was quantified via RP-HPLC.

[4] = carboxylate reductase activity, N7-acetyl-7-aminoheptanoate to N7-acetyl-7-aminoheptanal, NADPH consumption at 340 nm; settings: purified enzyme enhanced by sfp gene product, 2 mM N7-acetyl-7-aminoheptanoate, pH 7.5, room temperature, 20 min; FIG. 10
Protocol: The activity of each of the N-terminal His-tagged carboxylate reductases of SEQ ID NOs: 3, 5, and 6 (see Examples 2 and 3, and FIG. 6) for converting N7-acetyl-7-aminoheptanoate to N7-acetyl-7-aminoheptanal was assayed in triplicate in a buffer composed of a final concentration of 50 mM HEPES buffer (pH=7.5), 2 mM N7-acetyl-7-aminoheptanoate, 10 mM MgCl2, 1 mM ATP, and 1 mM NADPH. The assays were initiated by adding purified carboxylate reductase and phosphopantetheine transferase or the empty vector control to the assay buffer containing the N7-acetyl-7-aminoheptanoate then incubated at room temperature for 20 min. The consumption of NADPH was monitored by absorbance at 340 nm.

Molecule | acceptance of 7-aminoheptanoate as substrate (conversion of pyruvate to L-alanine) against the empty vector control [1] | acceptance of pimelate semialdehyde as substrate (conversion of L-alanine to pyruvate) against the empty vector control [2] | reversibility of ω-transaminase activity: pimelate semialdehyde accepted, 7-aminoheptanoate synthesized [2] | acceptance of 7-aminoheptanol as substrate (conversion of pyruvate to L-alanine) against the empty vector control [3] | acceptance of 7-oxoheptanol as substrate forming 7-aminoheptanol, concluded from reversibility [3] | acceptance of N7-acetyl-7-aminoheptanoate as substrate (NADPH consumption) against the empty vector control [4]
SEQ ID NO 10: Rhodobacter sphaeroides ω-transaminase, Genbank Accession No. ABA81135.1 | accepted 7-aminoheptanote as substrate | accepted pimelate semialdehyde as substrate | accepted pimelate semialdehyde as substrate and synthesized 7-aminoheptanoate as a reaction product | accepted 7-aminoheptanol as substrate | accept 7-oxoheptanol as substrate and form 7-aminoheptanol | –
SEQ ID NO 9: Pseudomonas syringae ω-transaminase, Genbank Accession No. AAY39893.1 (protein) MSANNPQTLEWQALSSEHHLAPFSDYKQLKEKGPRIITRAEGVYLWDSEGNKILDGMSGLWCVAIGYGREELADAASKQMRELPYYNLFFQTAHPPVLELAKAISDIAPEGMNHVFFTGSGSEGNDTMLRMVRHYWALKGQPNKKTIISRVNGYHGSTVAGASLGGMTYMHEQGDLPIPGVVHIPQPYWFGEGGDMTPDEFGIWAAEQLEKKILELGVENVGAFIAEPIQGAGGVIVPPDSYWPKIKEILSRYDILFAADEVICGFGRTSEWFGSDFYGLRPDMMTIAKGLTSGYVPMGGLIVRDEIVAVLNEGGDFNHGFTYSGHPVAAAVALENIRILREEKIVERVRSETAPYLQKRLRELSDHPLVGEVRGVGLLGAIELVKDKTTRERYTDKGAGMICRTFCFDNGLIMRAVGDTMIIAPPLVISFAQIDELVEKARTCLDLTLAVLQG | accepted 7-aminoheptanote as substrate | accepted pimelate semialdehyde as substrate | accepted pimelate semialdehyde as substrate and synthesized 7-aminoheptanoate as a reaction product | accepted 7-aminoheptanol as substrate | accept 7-oxoheptanol as substrate and form 7-aminoheptanol | –
SEQ ID NO 12: Vibrio fluvialis ω-transaminase, Genbank Accession No. AEA39183.1 (protein) MNKPQSWEARAETYSLYGFTDMPSLHQRGTVVVTHGEGPYIVDVNGRRYLDANSGLWNMVAGFDHKGLIDAAKAQYERFPGYHAFFGRMSDQTVMLSEKLVEVSPFDSGRVFYTNSGSEANDTMVKMLWFLHAAEGKPQKRKILTRWNAYHGVTAVSASMTGKPYNSVFGLPLPGFVHLTCPHYWRYGEEGETEEQFVARLARELEETIQREGADTIAGFFAEPVMGAGGVIPPAKGYFQAILPILRKYDIPVISDEVICGFGRTGNTWGCVTYDFTPDAIISSKNLTAGFFPMGAVILGPELSKRLETAIEAIEEFPHGFTASGHPVGCAIALKAIDVVMNEGLAENVRRLAPRFEERLKHIAERPNIGEYRGIGFMWALEAVKDKASKTPFDGNLSVSERIANTCTDLGLICRPLGQSVVLCPPFILTEAQMDEMFDKLEKALDKVFAEVA | accepted 7-aminoheptanote as substrate | accepted pimelate semialdehyde as substrate | accepted pimelate semialdehyde as substrate and synthesized 7-aminoheptanoate as a reaction product | – | – | –
SEQ ID NO 3: Mycobacterium smegmatis carboxylate reductase, Genbank Accession No. ABK71854.1 (protein) MTSDVHDATDGVTETALDDEQSTRRIAELYATDPEFAAAAPLPAVVDAAHKPGLRLAEILQTLFTGYGDRPALGYRARELATDEGGRTVTRLLPRFDTLTYAQVWSRVQAVAAALRHNFAQPIYPGDAVATIGFASPDYLTLDLVCAYLGLVSVPLQHNAPVSRLAPILAEVEPRILTVSAEYLDLAVESVRDVNSVSQLVVFDHHPEVDDHRDALARAREQLAGKGIAVTTLDAIADEGAGLPAEPIYTADHDQRLAMILYTSGSTGAPKGAMYTEAMVARLWTMSFITGDPTPVINVNFMPLNHLGGRIPISTAVQNGGTSYFVPESDMSTLFEDLALVRPTELGLVPRVADMLYQHHLATVDRLVTQGADELTAEKQAGAELREQVLGGRVITGFVSTAPLAAEMRAFLDITLGAHIVDGYGLTETGAVTRDGVIVRPPVIDYKLIDVPELGYFSTDKPYPRGELLVRSQTLTPGYYKRPEVTASVFDRDGYYHTGDVMAETAPDHLVYVDRRNNVLKLAQGEFVAVANLEAVFSGAALVRQIFVYGNSERSFLLAVVVPTPEALEQYDPAALKAALADSLQRTARDAELQSYEVPADFIVETEPFSAANGLLSGVGKLLRPNLKDRYGQRLEQMYADIAATQANQLRELRRAAATQPVIDTLTQAAATILGTGSEVASDAHFTDLGGDSLSALTLSNLLSDFFGFEVPVGTIVNPATNLAQLAQHIEAQRTAGDRRPSFTTVHGADATEIRASELTLDKFIDAETLRAAPGLPKVTTEPRTVLLSGANGWLGRFLTLQWLERLAPVGGTLITIVRGRDDAAARARLTQAYDTDPELSRRFAELADRHLRVVAGDIGDPNLGLTPEIWHRLAAEVDLVVHPAALVNHVLPYRQLFGPNVVGTAEVIKLALTERIKPVTYLSTVSVAMGIPDFEEDGDIRTVSPVRPLDGGYANGYGNSKWAGEVLLREAHDLCGLPVATFRSDMILAHPRYRGQVNVPDMFTRLLLSLLITGVAPRSFYIGDGERPRAHYPGLTVDFVAEAVTTLGAQQREGYVSYDVMNPHDDGISLDVFVDWLIRAGHPIDRVDDYDDWVRRFETALTALPEKRRAQTVLPLLHAFRAPQAPLRGAPEPTEVFHAAVRTAKVGPGDIPHLDEALIDKYIRDLREFGLI | – | – | – | – | – | accepted N7-acetyl-7-aminoheptanoate as substrate
